The target of test [1] is ACE2-hFc (human) (UniProt Q9BYF1).
Test [2] has as its target neutralizing antibody CR3022. The experiment in a line: SPR, immobilized CR3022.
In test [3] the target is neutralizing antibody CR3022.
For test [4], the target named is neutralizing antibody CR3022. This is another data set of the same source.
The target of test [5] is neutralizing antibody CR3022. The experiment in a line: SPR, CR3022 captured on Protein G, tagless pInCV02R as analyte (FIG. 11D). (In general: SPR reads the build-up and loss of mass on a sensor chip optically.)
Test [6] has as its target neutralizing antibody CR3022. This is another data set of the same source.
For test [7], the target named is neutralizing antibody CR3022. The source holds these as a separate data set.
Test [8] addresses neutralizing antibody CR3022. The experiment in a line: SPR (ProteOn XPR36), CR3022 captured on Protein G.
Test [9] deals with ACE2-hFc (human) (UniProt Q9BYF1). This is another data set of the same source.
Test [10] shares this target. This is another data set of the same source.
For test [11] the target is unchanged. The source holds these as a separate data set.

This passage reports kon, Kd and koff results from patent US20240262869A1.

Several values for one entry are separate records, joined by “and”; a condition that tells them apart may be missing. Identical values can stand only once. Like-named read-outs stand apart in the source and are kept apart here.

Chain of ACE2-hFc (human) (Q9BYF1 18-740 limits assumed): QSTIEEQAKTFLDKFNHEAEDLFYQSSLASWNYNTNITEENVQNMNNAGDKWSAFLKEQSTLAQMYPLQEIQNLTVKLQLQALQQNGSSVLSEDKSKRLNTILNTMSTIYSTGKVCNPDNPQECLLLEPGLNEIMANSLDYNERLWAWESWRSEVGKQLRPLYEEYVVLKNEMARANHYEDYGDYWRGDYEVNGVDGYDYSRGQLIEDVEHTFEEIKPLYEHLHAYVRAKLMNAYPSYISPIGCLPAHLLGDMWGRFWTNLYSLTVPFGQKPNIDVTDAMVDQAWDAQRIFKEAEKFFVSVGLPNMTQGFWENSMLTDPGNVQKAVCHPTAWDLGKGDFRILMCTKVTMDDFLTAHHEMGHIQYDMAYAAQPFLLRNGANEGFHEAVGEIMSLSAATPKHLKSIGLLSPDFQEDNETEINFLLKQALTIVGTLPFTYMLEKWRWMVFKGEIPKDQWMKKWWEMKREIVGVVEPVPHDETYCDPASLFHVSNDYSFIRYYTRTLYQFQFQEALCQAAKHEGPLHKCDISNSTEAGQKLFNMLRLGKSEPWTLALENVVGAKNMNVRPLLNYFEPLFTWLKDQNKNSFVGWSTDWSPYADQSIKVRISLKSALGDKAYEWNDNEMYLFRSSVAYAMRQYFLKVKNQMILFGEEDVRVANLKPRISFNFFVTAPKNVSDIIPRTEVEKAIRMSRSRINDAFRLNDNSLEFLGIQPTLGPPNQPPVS

A word on the kon: it is the rate constant with which the complex forms. The substance “mInCV26R (SARS CoV-2 RBD with hCMP at the C-terminal and EIS at the N-terminal) (ligand; other documents disagree on this pair)” registered a kon in the test with ACE2-hFc (human) [1] of 360000 M⁻¹ s⁻¹.

As a reminder, the Kd is the free concentration of one partner at which half of the binding sites on the other are occupied at equilibrium, for simple one-to-one binding. Low readings indicate tighter binding, high ones weaker binding. By koff is commonly meant the rate constant with which the complex falls apart. Read a high koff as a short-lived complex. In the case of “mInCV29R (SARS CoV-2 RBD with GlyIZ at C-terminal and EIS at the N-terminal) (ligand)”, the dissociation constant (Kd) in [2] is 3 nM and 5 nM. In [3], the equilibrium dissociation constant (Kd) was determined as 4.8 nM, the off-rate (koff) came out at 0.00097 s⁻¹ and the on-rate constant (kon) is 200000 M⁻¹ s⁻¹.

In the case of “pInCV02R (SARS CoV-2 RBD N-1 (332-532)) (from UniProt P0DTC2 332-532) (ligand)”, the dissociation constant Kd worked out at 29.5 nM in [4] and 30 nM in [5].

“mInCV21R (SARS CoV-2 hCMP-RBD) having EIS at the N-terminal (ligand)”: the dissociation constant Kd in test [6] was under 1 nM. Further, in test [3], the kon was found to be 310000 M⁻¹ s⁻¹.

With MsDPS2-SpyTag-mRBD-SpyCatcher conjugate, the association rate constant (kon) is 4.2e+06 M⁻¹ s⁻¹ in [3] and over 1e+06 M⁻¹ s⁻¹ in test [7].

“mInCV01R (SARS CoV-2 RBD) having EIS at the N-terminal (from UniProt P0DTC2 331-532) (ligand)”: the equilibrium dissociation constant (Kd) in test [8] turned out to be 1.3 nM.

In the test with ACE2-hFc (human) [1], “mInCV29R (SARS CoV-2 RBD with GlyIZ at C-terminal and EIS at the N-terminal) (ligand; other documents disagree on this pair)” returned a Kd of 3 nM, a koff of 0.0004 s⁻¹ and an association rate constant (kon) of 130000 M⁻¹ s⁻¹.

In the case of “mInCV21R (SARS CoV-2 hCMP-RBD) having EIS at the N-terminal (ligand; other documents disagree on this pair)”, the Kd in the test with ACE2-hFc (human) [9] is under 1 nM. The on-rate constant (kon) in the test with ACE2-hFc (human) [1] worked out at 200000 M⁻¹ s⁻¹. In the test with ACE2-hFc (human) [10], this substance showed an equilibrium dissociation constant (Kd) of 0.21 nM, an off-rate constant (koff) of 8.2e-05 s⁻¹ and an on-rate constant (kon) of 400000 M⁻¹ s⁻¹.

In test [3], “mInCV26R (SARS CoV-2 RBD with hCMP at the C-terminal and EIS at the N-terminal) (ligand)” had a kon of 480000 M⁻¹ s⁻¹.

Consider “MsDPS2-SpyTag-mRBD-SpyCatcher conjugate (other; other documents disagree on this pair)”, for which the values for the kon with ACE2-hFc (human) [1] and in the test with ACE2-hFc (human) [11] were 2.3e+06 M⁻¹ s⁻¹ and over 1e+06 M⁻¹ s⁻¹, respectively.
